From publication PMC10786891, “Massively parallel profiling of RNA-targeting CRISPR-Cas13d”
Numbering of substitutions follows the chain as printed. In names and notes the source's numbering stands.

T1: EsCas13d, nuclease-dead (Eubacterium siraeum, UniProt B0MS50, R295A;H300A;R849A;H854A)
T1 sequence: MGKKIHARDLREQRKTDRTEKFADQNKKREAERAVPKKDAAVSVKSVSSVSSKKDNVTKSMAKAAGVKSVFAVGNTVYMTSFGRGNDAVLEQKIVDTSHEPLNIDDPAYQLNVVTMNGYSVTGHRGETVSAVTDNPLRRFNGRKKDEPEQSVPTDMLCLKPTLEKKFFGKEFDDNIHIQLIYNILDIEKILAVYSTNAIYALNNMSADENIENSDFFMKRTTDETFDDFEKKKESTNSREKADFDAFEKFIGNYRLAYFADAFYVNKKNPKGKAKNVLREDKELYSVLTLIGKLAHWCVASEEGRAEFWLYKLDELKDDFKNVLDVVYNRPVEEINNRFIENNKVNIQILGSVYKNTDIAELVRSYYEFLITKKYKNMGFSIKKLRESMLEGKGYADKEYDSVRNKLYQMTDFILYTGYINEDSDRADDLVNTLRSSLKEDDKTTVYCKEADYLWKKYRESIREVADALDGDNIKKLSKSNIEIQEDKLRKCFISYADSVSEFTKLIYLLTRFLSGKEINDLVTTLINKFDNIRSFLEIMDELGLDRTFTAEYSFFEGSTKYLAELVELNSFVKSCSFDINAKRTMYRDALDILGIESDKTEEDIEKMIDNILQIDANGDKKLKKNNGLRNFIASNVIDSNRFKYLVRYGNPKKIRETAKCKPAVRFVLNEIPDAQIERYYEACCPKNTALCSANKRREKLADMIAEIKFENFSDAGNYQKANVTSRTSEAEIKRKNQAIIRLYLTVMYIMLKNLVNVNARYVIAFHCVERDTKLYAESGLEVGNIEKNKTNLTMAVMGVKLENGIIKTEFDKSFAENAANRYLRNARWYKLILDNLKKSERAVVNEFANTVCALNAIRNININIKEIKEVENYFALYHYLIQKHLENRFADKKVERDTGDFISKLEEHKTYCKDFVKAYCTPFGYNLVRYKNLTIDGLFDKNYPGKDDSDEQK

B1: target 1 C2G,A14G (mixed)
RNA 1: CACCCGUGCAAAAAUGCAGGGGUCUAAAACUGAGCGGAUAACCUCUCUAUGG
RNA 2: GGGAAUGGAUCCACAUCUACGAAUUCGUACCAUAGAGGGGUUAUCCGCUGACCGAGAUCGGAAGAGCACACGU
B2: target 1 insA 3' of 19,insU 3' of 5 (mixed)
RNA 1: B1 RNA 1
RNA 2: GGGAAUGGAUCCACAUCUACGAAUUCGUACCAUAAGAGAGGUUAUCCGUCUCACCGAGAUCGGAAGAGCACACGU
B3: target 1 insA 3' of 12,insG 3' of 2 (mixed)
RNA 1: B1 RNA 1
RNA 2: GGGAAUGGAUCCACAUCUACGAAUUCGUACCAUAGAGAGGAUUAUCCGCUCGACCGAGAUCGGAAGAGCACACGU
B4: target 1 del7,del22 (mixed)
RNA 1: B1 RNA 1
RNA 2: GGGAAUGGAUCCACAUCUACGAAUUCGUACAUAGAGAGGUUAUCGCUCACCGAGAUCGGAAGAGCACACGU
B5: target 1 A9U,G13A (mixed)
RNA 1: B1 RNA 1
RNA 2: B1 RNA 2 with G38A, G39A, A43U, G50C
B6: target 1 A16C,G17U (mixed)
RNA 1: B1 RNA 1
RNA 2: B1 RNA 2 with G35U, A36C, G38A, G50C
B7: target 1 insU 3' of 2,insG 3' of 2 (mixed)
RNA 1: B1 RNA 1
RNA 2: B3 RNA 2 with A41U, U43A, A44U, U45C, C47G, G48C, C49U, U50C, C51U
B8: target 1 C6A,A16G (mixed)
RNA 1: B1 RNA 1
RNA 2: B1 RNA 2 with A36G, G38A, C46A, G50C
B9: target 1 insG 3' of 16,insC 3' of 9 (mixed)
RNA 1: B1 RNA 1
RNA 2: B2 RNA 2 with A35G, G36A, A37G, U45C, C46U, G48C, U49G
B10: target 1 insG 3' of 10,insU 3' of 7 (mixed)
RNA 1: B1 RNA 1
RNA 2: B3 RNA 2 with A41U, U43G, C47U, G48C, C49G, U50C, C51U, G52C
B11: target 1 insC 3' of 19,insC 3' of 18 (mixed)
RNA 1: B1 RNA 1
RNA 2: GGGAAUGGAUCCACAUCUACGAAUUCGUACCAUCACGAGAGGUUAUCCGCUCACCGAGAUCGGAAGAGCACACGU
B12: target 1 insC 3' of 22,insA 3' of 17 (mixed)
RNA 1: B1 RNA 1
RNA 2: B11 RNA 2 with A32C, U33A, C34U, C36G, G37A
B13: target 1 insU 3' of 20,insA 3' of 7 (mixed)
RNA 1: B1 RNA 1
RNA 2: B2 RNA 2 with A34U, C47A, G48C, U49G
B14: target 1 insC 3' of 12,insG 3' of 6 (mixed)
RNA 1: B1 RNA 1
RNA 2: B3 RNA 2 with A41C, C49G, U50C, C51U, G52C
B15: target 1 insC 3' of 19 (mixed)
RNA 1: B1 RNA 1
RNA 2: GGGAAUGGAUCCACAUCUACGAAUUCGUACCAUCAGAGAGGUUAUCCGCUCACCGAGAUCGGAAGAGCACACGU
B16: target 1 insA 3' of 12,insA 3' of 7 (mixed)
RNA 1: B1 RNA 1
RNA 2: B3 RNA 2 with C47A, G48C, C49G, U50C, C51U, G52C
B17: target 1 C2A,G12U (mixed)
RNA 1: B1 RNA 1
RNA 2: B1 RNA 2 with G38A, G40U, G50A
B18: target 1 insU 3' of 22,insU 3' of 9 (mixed)
RNA 1: B1 RNA 1
RNA 2: B2 RNA 2 with C31U, A32C, U33A, A34U, C46U, G48C, U49G
B19: target 1 insU 3' of 16,insC 3' of 16 (mixed)
RNA 1: B1 RNA 1
RNA 2: B11 RNA 2 with C34A, A35G, C36A, G37U, A38C
B20: target 1 insC 3' of 18 (mixed)
RNA 1: B1 RNA 1
RNA 2: B15 RNA 2 with C34A, A35C
B21: target 1 U8A,C21U (mixed)
RNA 1: B1 RNA 1
RNA 2: B1 RNA 2 with C31U, G38A, U44A, G50C
B22: target 1 insG 3' of 11,insC 3' of 8 (mixed)
RNA 1: B1 RNA 1
RNA 2: B3 RNA 2 with A41U, U42G, G48C, C49G, U50C, C51U, G52C
B23: target 1 C7U,A14C (mixed)
RNA 1: B1 RNA 1
RNA 2: B1 RNA 2 with G38C, C45U, G50C
B24: target 1 insA 3' of 8,insG 3' of 4 (mixed)
RNA 1: B1 RNA 1
RNA 2: B3 RNA 2 with A41U, U43A, A44U, U45A, U50G, C51U, G52C
B25: target 1 C6A,U19A (mixed)
RNA 1: B1 RNA 1
RNA 2: B1 RNA 2 with U33A, G38A, C46A, G50C
B26: target 1 G12A,G17C (mixed)
RNA 1: B1 RNA 1
RNA 2: B1 RNA 2 with G35C, G38A, G40A, G50C
B27: target 1 insU 3' of 21,insC 3' of 10 (mixed)
RNA 1: B1 RNA 1
RNA 2: B2 RNA 2 with A32U, U33A, A34U, A44C, U45A, C46U, G48C, U49G
B28: target 1 insA 3' of 6,insC 3' of 5 (mixed)
RNA 1: B1 RNA 1
RNA 2: B3 RNA 2 with A41U, U43A, A44U, U45C, C47A, U50C, C51U, G52C
B29: target 1 C2G,C22A (mixed)
RNA 1: B1 RNA 1
RNA 2: B1 RNA 2 with C30A, G38A

target: T1, EsCas13d, nuclease-dead; assay: crRNA (strand 1, pre-loaded); Mg2+; 40 mM Tris-HCl pH 7.5, 150 mM NaCl, 6 mM MgCl2, 1 mM DTT, 0.1% Tween-20, 0.2 mg/ml BSA; 25 C; 10 min per concentration, then washed; conditions: tags: His6-TwinStrep-SUMO cleaved; N-terminal SNAP kept (SNAP-Surface 488); label: 3' end held by stalled T7 RNA polymerase

| Binder | Kd [nM] |
| --- | --- |
| B1 | 15.6 ± 1.8 |
| B2 | 41 ± 6 |
| B3 | 30 ± 4 |
| B4 | 22.6 ± 1.3 |
| B5 | 12.9 ± 0.9 |
| B6 | 28 ± 1.4 |
| B7 | 8.6 ± 0.6 |
| B8 | 28.8 ± 1.4 |
| B9 | 23.4 ± 1.1 |
| B10 | 21.8 ± 0.9 |
| B11 | 45.8 ± 3.4 |
| B12 | 33 ± 5 |
| B13 | 9.9 ± 0.6 |
| B14 | 9.1 ± 1.6 |
| B15 | 26.9 ± 2.2 |
| B16 | 25.9 ± 2.4 |
| B17 | 9.2 ± 0.4 |
| B18 | ~60 |
| B19 | 47 ± 4 |
| B20 | 30.3 ± 1.9 |
| B21 | 9.1 ± 0.4 |
| B22 | 39 ± 6 |
| B23 | 30 ± 4 |
| B24 | 7.7 ± 0.5 |
| B25 | 29.8 ± 1.7 |
| B26 | 34 ± 8 |
| B27 | 51 ± 9 |
| B28 | 23.9 ± 1.9 |
| B29 | 16.9 ± 1.8 |
